Values belong to the binder of their own block, whether it stands above or below them.
Columns and labels:
[1] = target: T1, ヒト可溶性CD4 (human soluble CD4 prepared in Example 2, C-terminal FLAG-tag, from COS7 cells) (human, UniProt P01730 26-396); test: SPR (BIAcore 2000), antibody amine-coupled on CM5, soluble CD4 as analyte
T1 construct: extracellular domain; no cleavage site is stated; also called ヒトCD4; CD4分子

[2] = target: T1, ヒト可溶性CD4 (human soluble CD4 prepared in …); test: SPR (BIAcore 2000), soluble CD4 amine-coupled on CM5, antibody (50 ug/ml) as analyte

Kd [1]: 1.71 nM | fold higher binding affinity than 13B8.2抗体 (comparison of KD) [1]: ~4.4 fold | koff [1]: 0.000231 s⁻¹ | kon [1]: 135000 M⁻¹ s⁻¹ | Kd [2]: 0.808 nM | koff [2]: 5.33e-06 s⁻¹ | kon [2]: 6600 M⁻¹ s⁻¹
B1: 4H5 抗体 (monoclonal antibody produced by Mouse-Mouse hybridoma 4H5, FERM P-16807) (antibody, IgG1, V domains shown)
VH: QVQLQQSGPELVKPGASVKMSCKASGYTFTDYVINWLNQRTGQGLEWIGEIYPGSGSAYYNEMFKGKATLTADKSSNTAYMQLSSLTSEDSAVYFCARRGTGTGFAYWGRGTLVTVSA
VL: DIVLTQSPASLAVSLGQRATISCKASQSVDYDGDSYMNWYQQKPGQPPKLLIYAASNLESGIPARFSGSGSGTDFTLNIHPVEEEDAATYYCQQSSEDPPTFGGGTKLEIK
notes: also called 4H5 antibody; 抗ヒトCD4抗体 4H5

Kd [2]: 1.24 nM | koff [2]: 2.92e-05 s⁻¹ | kon [2]: 23600 M⁻¹ s⁻¹
B2: キメラ 4H5抗体 (ヒトマウスキメラ抗CD4抗体, expressed from pG14H5 in COS7 cells) (antibody, V domains shown)
VH: B1 VH
VL: not shown

Reference: patent publication JPH11332563A (dated 1999)
